Measurements as given in article PMC8891275, “Crosstalk between CRISPR-Cas9 and the human transcriptome”.

Columns and labels:
[1] = biological target: T1, SpCas9-NLS (CAS9PROT, Sigma-Aldrich) (UniProt Q99ZW2 1-1368); assay: competition; does not outcompete 20 nM labeled CDIP1 RNA; Cas9 640 nM; 1:1 to 1:32 to Cas9; 20 mM Tris-HCl pH 7.4, 150 mM KCl, 5 mM MgCl2, 5 mM EDTA, 1 mM DTT, 0.1% BSA, 5% glycerol, 0.01% Tween 20, 50 ug/mL heparin, 200 U/mL Superase-In; 30 min at room temperature; gel at 4 C; conditions: protein: commercial; tags: NLS
T1 sequence (Q99ZW2 whole entry): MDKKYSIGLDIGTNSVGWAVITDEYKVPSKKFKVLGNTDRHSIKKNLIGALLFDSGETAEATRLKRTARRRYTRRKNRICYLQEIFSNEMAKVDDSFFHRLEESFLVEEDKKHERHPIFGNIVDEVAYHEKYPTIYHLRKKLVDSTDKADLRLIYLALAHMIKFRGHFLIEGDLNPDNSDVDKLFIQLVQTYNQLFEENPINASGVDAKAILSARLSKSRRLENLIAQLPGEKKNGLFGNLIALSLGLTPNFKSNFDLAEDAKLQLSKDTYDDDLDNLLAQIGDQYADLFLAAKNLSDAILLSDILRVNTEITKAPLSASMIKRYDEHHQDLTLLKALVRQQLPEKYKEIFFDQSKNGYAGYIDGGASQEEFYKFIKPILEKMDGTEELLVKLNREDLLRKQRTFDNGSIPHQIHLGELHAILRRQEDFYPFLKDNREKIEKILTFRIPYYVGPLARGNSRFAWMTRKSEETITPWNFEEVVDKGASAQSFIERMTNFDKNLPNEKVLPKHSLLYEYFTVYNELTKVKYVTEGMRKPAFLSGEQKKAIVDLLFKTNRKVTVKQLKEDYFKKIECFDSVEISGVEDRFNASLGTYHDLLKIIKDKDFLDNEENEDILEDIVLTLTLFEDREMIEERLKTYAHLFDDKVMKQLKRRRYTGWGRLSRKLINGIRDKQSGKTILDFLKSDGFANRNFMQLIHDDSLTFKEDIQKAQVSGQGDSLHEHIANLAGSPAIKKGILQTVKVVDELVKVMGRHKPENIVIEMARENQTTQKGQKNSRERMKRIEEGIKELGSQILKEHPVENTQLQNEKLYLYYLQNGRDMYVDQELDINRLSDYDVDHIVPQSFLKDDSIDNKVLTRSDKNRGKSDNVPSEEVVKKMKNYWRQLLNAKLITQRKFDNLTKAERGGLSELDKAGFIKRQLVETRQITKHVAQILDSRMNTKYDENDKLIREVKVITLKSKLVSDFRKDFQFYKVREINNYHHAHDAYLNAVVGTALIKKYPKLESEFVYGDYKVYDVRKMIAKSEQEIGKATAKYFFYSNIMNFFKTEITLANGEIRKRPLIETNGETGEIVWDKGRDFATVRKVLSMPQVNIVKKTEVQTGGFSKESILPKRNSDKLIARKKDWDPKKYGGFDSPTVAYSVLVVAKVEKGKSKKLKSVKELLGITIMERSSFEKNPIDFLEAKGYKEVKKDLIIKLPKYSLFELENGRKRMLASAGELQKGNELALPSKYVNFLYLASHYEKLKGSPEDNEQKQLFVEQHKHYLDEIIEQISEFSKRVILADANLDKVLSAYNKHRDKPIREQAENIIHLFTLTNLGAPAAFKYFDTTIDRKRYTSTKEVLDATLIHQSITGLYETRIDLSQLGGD

[2] = biological target: T1, SpCas9-NLS (CAS9PROT, Sigma-Aldrich); assay: EMSA; apparent Kd, high nanomolar; 20 nM RNA, Cas9 0-1000 nM; no gRNA; 20 mM Tris-HCl pH 7.4, 150 mM KCl, 5 mM MgCl2, 5 mM EDTA, 1 mM DTT, 0.1% BSA, 5% glycerol, 0.01% Tween 20, 50 ug/mL heparin, 200 U/mL Superase-In; 30 min at room temperature; gel at 4 C; conditions: protein: commercial; tags: NLS; label: 5' IRDye 800CW; GU-loop upstream of 5-nt stem
[3] = biological target: T1, SpCas9-NLS (CAS9PROT, Sigma-Aldrich); assay: competition; outcompetes 20 nM labeled CDIP1 RNA; Cas9 640 nM; 1:1 to 1:32 to Cas9; 20 mM Tris-HCl pH 7.4, 150 mM KCl, 5 mM MgCl2, 5 mM EDTA, 1 mM DTT, 0.1% BSA, 5% glycerol, 0.01% Tween 20, 50 ug/mL heparin, 200 U/mL Superase-In; 30 min at room temperature; gel at 4 C; conditions: protein: commercial; tags: NLS; guide RNA hairpins

B1: non-specific (N.S.) RNA, unlabeled (ssRNA)
RNA: CUAUGCGGCAUCAGAGCAGAUUGUACUGAGAGUGCACCAUAUGCGGUGUGAAAUACCGCACAGAUGCGUAAGGAGAAAAUACCGCAUCAGGCGCCAUUCGCCAUUCAGGCUGCGCAACUGUUGG
binding result [1]: no binding

B2: CDIP1 5' UTR RNA (Fig. 2) (structured_RNA)
RNA: UACCCGCCUCCUUGUGACAGAAGUGCGACUGCCAGCUGCCGAGGCGUUCGGUCCUGCUGUUGCGGCCGCUGCCCCAGGGCUGCGGGGACGGUGAGUCGACUGGA
Kd [2]: > 100 nM

B3: Cas9 gRNA (structured_RNA)
RNA: AUUAAUCGGUGGGAGUAUUCGUUUAAGAGCUAUGCUGGAAACAGCAUAGCAAGUUUAAAUAAGGCUAGUCCGUUAUCAACUUGAAAAAGUGGCACCGAGUCGGUGCU
binding result [3]: binds
